The assay concerns the target T1, His-tagged Dock180 (UniProt Q14185 1-1865).
T1 construct: also called His-Dock180; CED-5/Dock180; not shown: His tag
Put plainly: co-immunoprecipitation, anti-FLAG IP and anti-Dock180 blot, COS-7 cells (FIG. 20B lane 9). The source says: COS-7 cells were transfected with the indicated plasmids and the lysates were immunoprecipitated with anti-FLAG antibody and immunoblotted with anti-Dock180 (a mixture of N- and C-terminal antibodies). The same blot was stripped and reprobed with anti-FLAG to determine expression of the FLAG-tagged proteins. Immunoblotting of total lysates indicated the expression of Dock180 in the appropriate lanes. FIG. 20C is a photograph of a blot showing that ELMO1 and ELMO2 interact with Dock180. COS-7 cells were transfected as above with plasmids coding for FLAG-tagged ELMO1, ELMO2, the N-term or C-term versions of ELMO1 along with His-Dock180. After anti-FLAG immunoprecipitation, the coprecipitation of Dock180 was analyzed by immunoblotting. FIG. 20D is a photograph of a blot showing that CED-12 interacts with CED-5, but not Rac in a yeast two-hybrid assay. Interaction between Caenorhabditis elegans CED-12 and CED-5 as well as Rac wt and mutants were analyzed by yeast two-hybrid interaction as described in the Experimental procedures. Growth seen on selective plates is shown. FIG. 20E is a photograph of a blot showing that formation of a trimeric complex between ELMO1, CrkII and Dock180. […]
It was determined whether there might be a physical interaction between ELMO1 and Dock180, Rac or CrkII. […]

B1: FLAG-tagged human CED-6 (other, UniProt Q9UBP9 1-304, looked up)
chain: MNRAFSRKKDKTWMHTPEALSKHFIPYNAKFLGSTEVEQPKGTEVVRDAVRKLKFARHIKKSEGQKIPKVELQISIYGVKILEPKTKEVQHNCQLHRISFCADDKTDKRIFTFICKDSESNKHLCYVFDSEKCAEEITLTIGQAFDLAYRKFLESGGKDVETRKQIAGLQKRIQDLETENMELKNKVQDLENQLRITQVSAPPAGSMTPKSPSTDIFDMIPFSPISHQSSMPTRNGTQPPPVPSRSTEIKRDLFGAEPFDPFNCGAADFPPDIQSKLDEMQEGFKMGLTLEGTVFCLDPLDSRC
notes: not shown: FLAG tag
Regarding B1, the binding result is “no binding”.

The record behind these values is patent US20030028904A1 (published 2003).
